One test has as its system RevErba promoter. In words: NHR-promoter luciferase screen, RevErba (RVRa) promoter. It is filed as cell-based. Also on record: key to mRevErba promoter reporter activity / Normalized Luc. act., normalized to control: luciferase activity normalized to lacZ and to control (no NHR/ligand). The conditions noted are these: for Luc. act., normalized to lacZ / Normalized Luc. act., normalized to control / normalized Luc. act. on a logarithmic scale (column without head, Table 33): RVRa promoter; for Luc. act., normalized to lacZ / Normalized Luc. act., normalized to control: HR component without or with ligand; for normalized Luc. act. on a logarithmic scale (column without head, Table 33): log10 of activity normalized to control; for mRevErba promoter reporter activity: transcription factor +/- ligand, control = 1.00. The essentials: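 Reporter readout: RevErbα promoter-driven luciferase, corrected for LacZ transfection efficiency and expressed relative to a no-receptor or no-ligand control. Receptors (V5H6-tagged, pcDNA3.1), alone or with RXR, plus any ligand, were expressed in CV-1 cells.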

A further test deals with mAdiponectin promoter. Kind of test: NHR-promoter luciferase screen, mAdiponectin promoter. The test is classed as cell-based, mouse. To be noted: for Luc. act., normalized to lacZ / Normalized Luc. act., normalized to control: Adiponectin, HR component without or with its ligand; for mAdiponectin promoter reporter activity: transcription factor +/- ligand, control = 1.00. An outline of the steps: (§1)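 CV-1 cells were co-transfected with 50 ng NHR (homodimer or NHR/RXR heterodimer), 100 ng promoter-luciferase construct and 50 ng LacZ. Luciferase was normalized to LacZ and to a no-NHR/no-ligand control.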

A further test relates to mPgc1b promoter. Kind of test: NHR-promoter luciferase screen, mPgc1b promoter. The test is classed as cell-based, mouse. The conditions noted are these: for Luc. act., normalized to lacZ / Normalized Luc. act., normalized to control: PGC1b promoter reporter, co-transfected HR, without or with its ligand; for Normalized Luc. act., normalized to control: relative to control; for luciferase activity normalized to lacZ activity and to a control, mPgc1b: mPgc1b promoter-luciferase, CV-1 cells, NHR +/- ligand, control = 1.00. The essentials:
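Luciferase reporter read-out after co-expression in CV-1 cells of V5H6-tagged receptor (alone or with RXR), the promoter construct and LacZ. Values are luciferase/LacZ relative to a control lacking NHR or ligand; orphan receptors tested ligand-free.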

For the next test, the system named is mPer1 promoter. In words: NHR-promoter luciferase screen, mPer1 promoter. It is filed as cell-based, mouse. The conditions noted are these: for Luc. act., normalized to lacZ / Normalized Luc. act., normalized to control: Per1 promoter reporter, co-transfected HR, with or without its ligand; for Normalized Luc. act., normalized to control: relative to control; for luciferase activity normalized to lacZ activity and to a control, mPer1: mPer1 promoter-luciferase, CV-1 cells, NHR +/- ligand, control = 1.00. An outline of the steps: as §1

A further test deals with hPPARg1 promoter. Kind of test: NHR-promoter luciferase screen, hPPARg1 promoter. It is filed as cell-based, human. To be noted: for Luc. act., normalized to lacZ / Normalized Luc. act., normalized to control: PPARG1 promoter, hormone receptor with or without its ligand; for Normalized Luc. act., normalized to control: relative to control; for Results of assays of transcription factor (+/- ligand) with hPPARg1: Table 6d, luciferase activity relative to control (control = 1.00). The essentials: as §1

B1: PXR: Pregnane X Receptor (NR1I2), cDNA driver (protein, UniProt O75469 1-434, looked up)
Nuclear receptor subfamily 1 …: MEVRPKESWNHADFVHCEDTESVPGKPSVNADEEVGGPQICRVCGDKATGYHFNVMTCEGCKGFFRRAMKRNARLRCPFRKGACEITRKTRRQCQACRLRKCLESGMKKEMIMSDEAVEERRALIKRKKSERTGTQPLGVQGLTEEQRMMIRELMDAQMKTFDTTFSHFKNFRLPGVLSSGCELPESLQAPSREEAAKWSQVRKDLCSLKVSLQLRGEDGSVWNYKPPADSGGKEIFSLLPHMADMSTYMFKGIISFAKVISYFRDLPIEDQISLLKGAAFELCQLRFNTVFNAETGTWECGRLSYCLEDTAGGFQQLLLEPMLKFHYMLKKLQLHEEEYVLMQAISLFSPDRPGVLQHRVVDQLQEQFAITLKSYIECNRPQPAHRFLFLKIMAMLTELRSINAQHTQRLLRIQDIHPFATPLMQELFGITGS
As for B1, in the test with RevErba promoter, the “Luc. act., normalized to lacZ” value was 42.5; the “Normalized Luc. act., normalized to control” value was 1.5; the “normalized Luc. act. on a logarithmic scale (column without head, Table 33)” value came out at 0.18; the “mRevErba promoter reporter activity” value was determined as 1.52. Also, in the test with mAdiponectin promoter, the “Luc. act., normalized to lacZ” value stood at 97.1; the “Normalized Luc. act., normalized to control” value was 1.5; the “mAdiponectin promoter reporter activity” value amounted to 1.55. In addition, in the test on mPgc1b promoter, the “Luc. act., normalized to lacZ” value came to 10.19; the “Normalized Luc. act., normalized to control” value is on record as 0.9; the “luciferase activity normalized to lacZ activity and to a control, mPgc1b” value was 0.86. Further, in the test on mPer1 promoter, the “Luc. act., normalized to lacZ” value stood at 186.7; the “Normalized Luc. act., normalized to control” value was determined as 1.3; the “luciferase activity normalized to lacZ activity and to a control, mPer1” value was 1.30. Besides, in the test with hPPARg1 promoter, the “Luc. act., normalized to lacZ” value is given as 63.3; the “Normalized Luc. act., normalized to control” value worked out at 0.9; the “Results of assays of transcription factor (+/- ligand) with hPPARg1” value is 0.92.

B2: CAR: Constitutive Androstane Receptor (NR1I3), cDNA driver (protein, UniProt Q14994 1-352, looked up)
Nuclear receptor subfamily 1 …: MASREDELRNCVVCGDQATGYHFNALTCEGCKGFFRRTVSKSIGPTCPFAGSCEVSKTQRRHCPACRLQKCLDAGMRKDMILSAEALALRRAKQAQRRAQQTPVQLSKEQEELIRTLLGAHTRHMGTMFEQFVQFRPPAHLFIHHQPLPTLAPVLPLVTHFADINTFMVLQVIKFTKDLPVFRSLPIEDQISLLKGAAVEICHIVLNTTFCLQTQNFLCGPLRYTIEDGARVSPTVGFQVEFLELLFHFHGTLRKLQLQEPEYVLLAAMALFSPDRPGVTQRDEIDQLQEEMALTLQSYIKGQQRRPRDRFLYAKLLGLLAELRSINEAYGYQIQHIQGLSAMMPLLQEICS
In the case of B2, in the test on RevErba promoter, the “Luc. act., normalized to lacZ” value is on record as 40.00; the “Normalized Luc. act., normalized to control” value was determined as 1.4; the “normalized Luc. act. on a logarithmic scale (column without head, Table 33)” value turned out to be 0.16; the “mRevErba promoter reporter activity” value is given as 1.43. Further, in the test on mAdiponectin promoter, the “Luc. act., normalized to lacZ” value is reported as 46.8; the “Normalized Luc. act., normalized to control” value was 0.7; the “mAdiponectin promoter reporter activity” value was 0.74. In the test with mPgc1b promoter, the “Luc. act., normalized to lacZ” value came out at 9.21; the “Normalized Luc. act., normalized to control” value came to 0.8; the “luciferase activity normalized to lacZ activity and to a control, mPgc1b” value was 0.78. Moreover, in the test on mPer1 promoter, the “Luc. act., normalized to lacZ” value is listed as 86.6; the “Normalized Luc. act., normalized to control” value amounted to 0.6; the “luciferase activity normalized to lacZ activity and to a control, mPer1” value came out at 0.60. In the test on hPPARg1 promoter, the “Luc. act., normalized to lacZ” value was determined as 46.4; the “Normalized Luc. act., normalized to control” value worked out at 0.7; the “Results of assays of transcription factor (+/- ligand) with hPPARg1” value stood at 0.67.

Values taken from US20110263454A1, “Methods of Identifying Functional Characteristics of Promoters, Transcription Modifying Proteins and Transcription Modulating Agents” (Salk Institute for Biological Studies, priority 2008, published 2011).
